Assay results as given in patent publication US20210101937A1 (Bicycle, published 2021).
*1 amine or outer side, *2 acyl side, *3 side chain or, on linkers, in order; H or OH if unused. Bridges are numbered along the chain shown (N, C = ends). Roman numbers before positions name the chains, in order. Where no end group is shown, it is not given here. [ ]: non-standard residue; d: D form. The star is where a group is joined. TATA = O=C(CC[*:1])N1CN(C(=O)CC[*:2])CN(C(=O)CC[*:3])C1; 1Nal = N[C@@H](Cc1cccc2ccccc12)C(=O)O; Hyp = O=C(O)[C@@H]1C[C@@H](O)CN1; hArg = N=C(N)NCCCC[C@H](N)C(=O)O; tBuAla = CC(C)(C)C[C@H](N)C(=O)O; Cysteamide = C(CS[*:3])N[*:1]; NMeA = CN[C@@H](C)C(=O)O; Nle = CCCC[C@H](N)C(=O)O; Pent4ynoyl = C#CCCC(=O)*; dNMeA = CN[C@H](C)C(=O)O; βAla = NCCC(=O)O; Mpa = O=C(O)CCS

B1: BCY12583 (peptide)
peptide 1: CP[1Nal][dE]CL[hArg]DWSTP[Hyp]WC
peptide 2: Ac-C[tBuAla]PE[dK](Pent4ynoyl)PYCFADPY[Nle]CA
modifications: linker I:1-I:5-I:15, II:1-II:8-II:15 via TATA; not fully specified (bridges); printed as CP[1Nal][dE]CL[HArg]DWSTP[HyP]WC / Ac-C[tBuAla]PE[D-Lys(PYA)]PYCFADPY[Nle]CA; also: chain 1 N-terminus joined to chain 2 dLys(PYA) by Peg5 linker (heterotandem complex)
B2: BCY12574 (peptide)
peptide 1: CP[1Nal][dD]CM[hArg]DWSTP[Hyp]WC
peptide 2: [Mpa][tBuAla]PE[dK](Pent4ynoyl)PYCFADPY[Nle]-Cysteamide
modifications: linker I:1-I:5-I:15 via TATA; numbers in words are those of the source; also: two bicycles joined by Peg5 linker, linker at chain B 7 to a chain's N/C-terminus via TATA
B3: BCY12578 (peptide)
peptide 1: XXKCMXDWSTPXX
peptide 2: CXPEXPYCFADPYXCA
modifications: Ac-C[tBuAla]PE[D-Lys(PYA)]PYCFADPY[Nle]CA; Cys residues bonded to TATA scaffold; [3-mercaptopropionic acid]P[1Nal][dK]CM[HArg]DWSTP[HyP]W[Cysteamine]; reactive groups bonded to TATA scaffold
B4: BCY12577 (peptide)
peptide 1: CPXKCMXDWSTPXX
peptide 2: CXPEXPYCFADPYXCA
modifications: Ac-C[tBuAla]PE[D-Lys(PYA)]PYCFADPY[Nle]CA; Cys residues bonded to TATA scaffold; [Ac]CP[1Nal][dK]CM[HArg]DWSTP[HyP]W[Cysteamine]; reactive groups bonded to TATA scaffold
B5: BCY12379 (peptide)
peptide 1: CPXDCMXDWSTPXWC
peptide 2: CXPEKPYCFADPYXC
modifications: [Ac]C[tBuAla]PE[dK(PYA)]PYCFADPY[Nle]C; Cys residues bonded to TATA scaffold; CP[1Nal][dD]CM[HArg]DWSTP[HyP]WC; Cys residues bonded to TATA scaffold
B6: BCY12572 (peptide)
peptide 1: CPXDCMXDWSTPXWC
peptide 2: CXPEKPYCFADPYX
modifications: [Ac]C[tBuAla]PE[dK(PYA)]PYCFADPY[Nle][Cysteamine]; reactive groups bonded to TATA scaffold; CP[1Nal][dD]CM[HArg]DWSTP[HyP]WC; Cys residues bonded to TATA scaffold
B7: BCY12582 (peptide)
peptide 1: CP[1Nal][dA]CM[hArg]DWSTP[Hyp]WC
peptide 2: Ac-C[tBuAla]PE[dK](Pent4ynoyl)PYCFADPY[Nle]CA
modifications: linker I:1-I:5-I:15, II:1-II:8-II:15 via TATA; not fully specified (bridges); also: chain 1 N-terminus joined to chain 2 dLys(PYA) by Peg5 linker (heterotandem complex)
B8: BCY12580 (peptide)
peptide 1: CPXKCMXEWSTPXWC
peptide 2: CXPEXPYCFADPYXCA
modifications: Ac-C[tBuAla]PE[D-Lys(PYA)]PYCFADPY[Nle]CA; Cys residues bonded to TATA scaffold; [Ac]CP[1Nal][dK]CM[HArg]EWSTP[HyP]WC; Cys residues bonded to TATA scaffold
B9: BCY11776 (peptide)
peptide 1: CPXDCMXDWSTPXWC
peptide 2: CXPEKPYCFADPYXCX
modifications: not fully specified; [Ac]C[tBuAla]PE[dK]PYCFADPY[Nle]C[Dap(PYA)]; dK carries palmitic acid (Example 5); Cys residues bonded to TATA scaffold; CP[1Nal][dD]CM[HArg]DWSTP[HyP]WC; Cys residues bonded to TATA scaffold
B10: BCY11616 (peptide)
peptide 1: CPXDCMXDWSTPXWC
peptide 2: ACIEEKQYCFADPYXCA
modifications: Ac-ACIEE(D-K)(PYA)QYCFADPY(Nle)CA; Cys residues bonded to TATA scaffold; CP[1Nal][dD]CM[HArg]DWSTP[HyP]WC; Cys residues bonded to TATA scaffold
B11: BCY12709 (peptide)
peptide 1: CP[1Nal][dD]CM[hArg]DWSTP[Hyp]WC
peptide 2: Ac-C[tBuAla]PE[dK](Pent4ynoyl)PYCFAD[NMeA]Y[Nle]C
modifications: linker I:1-I:5-I:15, II:1-II:8-II:15 via TATA; not fully specified (bridges); also: chain 1 N-terminus joined to chain 2 dLys(PYA) by Peg5 linker (heterotandem complex)
B12: BCY12710 (peptide)
peptide 1: CP[1Nal][dD]CM[hArg]DWSTP[Hyp]WC
peptide 2: Ac-C[tBuAla]PE[dK](Pent4ynoyl)PYCFAD[dNMeA]Y[Nle]C
modifications: linker I:1-I:5-I:15, II:1-II:8-II:15 via TATA; not fully specified (bridges); also: chain 1 N-terminus joined to chain 2 dLys(PYA) by Peg5 linker (heterotandem complex)
B13: BCY12573 (peptide)
peptide 1: CP[1Nal][dD]CM[hArg]DWSTP[Hyp]WC
peptide 2: [Mpa][tBuAla]PE[dK](Pent4ynoyl)PYCFADPY[Nle]C
modifications: linker I:1-I:5-I:15 via TATA; numbers in words are those of the source; also: two bicycles joined by Peg5 linker, linker at chain B 7 at chain B 14 to a chain's N-terminus via TATA
B14: BCY12020 (peptide)
peptide 1: XCPXDCMXDWSTPXWC
peptide 2: CXPEKPYCFADPYXCX
modifications: [Ac]C[tBuAla]PE[dK]PYCFADPY[Nle]C[Dap(PYA)]; carries Palmitic acid-PEG10 (Example 7); Cys residues bonded to TATA scaffold; [PYA][B-Ala]CP[1Nal][dD]CM[HArg]DWSTP[HyP]WC; Cys residues bonded to TATA scaffold
B15: BCY12585 (peptide)
peptide 1: CP[1Nal][dE]CM[hArg]EWSTP[Hyp]WC
peptide 2: Ac-C[tBuAla]PE[dK](Pent4ynoyl)PYCFADPY[Nle]CA
modifications: linker I:1-I:5-I:15, II:1-II:8-II:15 via TATA; not fully specified (bridges); printed as CP[1Nal][dE]CM[HArg]EWSTP[HyP]WC / Ac-C[tBuAla]PE[D-Lys(PYA)]PYCFADPY[Nle]CA; also: chain 1 N-terminus joined to chain 2 dLys(PYA) by Peg5 linker (heterotandem complex)
B16: BCY11618 (peptide)
peptide 1: Pent4ynoyl-[βAla]CP[1Nal][dK]CM[hArg]DWSTP[Hyp]WC
peptide 2: Ac-C[tBuAla]PE[dK]PYCFADPY[Nle]CA
modifications: linker I:2-I:6-I:16, II:1-II:8-II:15 via TATA; linker II:N-II:5 via Peg5; not fully specified (some residues); also: palmitic acid on dK of chain 1
B17: BCY12576 (peptide)
peptide 1: XXKCMXDWSTPXWC
peptide 2: CXPEXPYCFADPYXCA
modifications: Ac-C[tBuAla]PE[D-Lys(PYA)]PYCFADPY[Nle]CA; Cys residues bonded to TATA scaffold; [3-mercaptopropionic acid]P[1Nal][dK]CM[HArg]DWSTP[HyP]WC; reactive groups bonded to TATA scaffold
B18: BCY12377 (peptide)
peptide 1: CPXDCMXDWSTPXWC
peptide 2: CXEEKPYCFADPYXC
modifications: [Ac]C[tBuAla]EE[dK(PYA)]PYCFADPY[Nle]C; Cys residues bonded to TATA scaffold; CP[1Nal][dD]CM[HArg]DWSTP[HyP]WC; Cys residues bonded to TATA scaffold
B19: BCY12661 (peptide)
peptide 1: XPXDCMXDWSTPXWC
peptide 2: CXEEKPYCFADPYXCX
modifications: [Ac]C[tBuAla]EE(dK)PYCFADPY[Nle]C[Dap(PYA)]; carries the palmitic acid azide of Example 8 (palmitic acid, γGlu, Lys(N3)); Cys residues bonded to TATA scaffold; [PYA]CP[1Nal][dD]CM[HArg]DWSTP[HyP]WC; Cys residues bonded to TATA scaffold
B20: BCY11860 (peptide)
peptide 1: Pent4ynoyl-[βAla]CP[1Nal][dK]CM[hArg]DWSTP[Hyp]WC
peptide 2: Ac-C[tBuAla]PE[dK]PYCFADPY[Nle]CA
modifications: linker I:2-I:6-I:16, II:1-II:8-II:15 via TATA; linker II:N-II:5 via Peg5; also: two bicycles joined by Peg5 linker, further acylated with a reagent shown only in a drawing
B21: BCY12579 (peptide)
peptide 1: CPXKCMXHWSTPXWC
peptide 2: CXPEXPYCFADPYXCA
modifications: Ac-C[tBuAla]PE[D-Lys(PYA)]PYCFADPY[Nle]CA; Cys residues bonded to TATA scaffold; [Ac]CP[1Nal][dK]CM[HArg]HWSTP[HyP]WC; Cys residues bonded to TATA scaffold
B22: BCY12581 (peptide)
peptide 1: CP[1Nal][dE]CM[hArg]DWSTP[Hyp]WC
peptide 2: Ac-C[tBuAla]PE[dK](Pent4ynoyl)PYCFADPY[Nle]CA
modifications: linker I:1-I:5-I:15, II:1-II:8-II:15 via TATA; not fully specified (bridges); also: chain 1 N-terminus joined to chain 2 dLys(PYA) by Peg5 linker (heterotandem complex)
B23: BCY12234 (peptide)
peptide 1: AXDCXLVNPLCLHPDWXCK
peptide 2: CXPEKPYCFADPYXCA
modifications: Ac-C[tBuAla]PE[D-Lys]PYCFADPY[Nle]CA; Cys residues bonded to TATA scaffold; [Ac]A[HArg]DC[HyP]LVNPLCLHP[dD]W[HArg]CK(PYA); Cys residues bonded to TATA scaffold
B24: BCY12233 (peptide)
peptide 1: Pent4ynoyl-A[hArg]DC[Hyp]LVNPLCLHP[dD]W[hArg]C
peptide 2: Ac-C[tBuAla]PE[dK]PYCFADPY[Nle]CA
modifications: linker I:4-I:11-I:18, II:1-II:8-II:15 via TATA; linker II:N-II:5 via Peg5; also: two bicycles joined by Peg5 linker
B25: BCY12236 (peptide)
peptide 1: AXDCXKVNPLCLHPDWXC
peptide 2: CXPEKPYCFADPYXCA
modifications: Ac-C[tBuAla]PE[D-Lys]PYCFADPY[Nle]CA; Cys residues bonded to TATA scaffold; [Ac]A[HArg]DC[HyP]K(PYA)VNPLCLHP[dD]W[HArg]C; Cys residues bonded to TATA scaffold
B26: BCY12235 (peptide)
peptide 1: AXDCXLVNPLCLKPDWXC
peptide 2: CXPEKPYCFADPYXCA
modifications: Ac-C[tBuAla]PE[D-Lys]PYCFADPY[Nle]CA; Cys residues bonded to TATA scaffold; [Ac]A[HArg]DC[HyP]LVNPLCLK(PYA)P[dD]W[HArg]C; Cys residues bonded to TATA scaffold
B27: BCY12237 (peptide)
peptide 1: AXDCXLVNPLCKHPDWXC
peptide 2: CXPEKPYCFADPYXCA
modifications: Ac-C[tBuAla]PE[D-Lys]PYCFADPY[Nle]CA; Cys residues bonded to TATA scaffold; [Ac]A[HArg]DC[HyP]LVNPLCK(PYA)HP[dD]W[HArg]C; Cys residues bonded to TATA scaffold
B28: BCY12229 (peptide)
peptide 1: DXCSAGWLTMCQKLHLCPSH
peptide 2: CXPEXPYCFADPYXCA
modifications: Ac-C[tBuAla]PE[D-Lys(PYA)]PYCFADPY[Nle]CA; Cys residues bonded to TATA scaffold; [Ac]D[HArg]CSAGWLTMCQKLHLCPSH; Cys residues bonded to TATA scaffold

biological target: T1, CD137 (UniProt Q07011 24-255, limits assumed); assay: cell-based or functional assay
T1 sequence (Q07011 24-255 limits assumed): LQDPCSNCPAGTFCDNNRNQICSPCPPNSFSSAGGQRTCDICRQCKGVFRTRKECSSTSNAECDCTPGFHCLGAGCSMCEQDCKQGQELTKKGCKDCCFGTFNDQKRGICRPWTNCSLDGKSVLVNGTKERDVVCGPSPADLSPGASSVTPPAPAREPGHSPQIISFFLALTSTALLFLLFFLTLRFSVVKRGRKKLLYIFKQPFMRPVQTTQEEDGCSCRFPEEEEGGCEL

Binder	Fold improvement in EC50 over BCY10000 on same plate	Fold improvement in Emax over BCY10000 on same plate
B1	0.6 fold	1.47 fold
B2	0.22 fold	0.77 fold
B3	0.05 fold	0.93 fold
B4	0.25 fold	1.06 fold
B5	0.91 fold	1.29 fold
B6	0.35 fold	1.67 fold
B7	1.69 fold	1.32 fold
B8	0.64 fold	0.97 fold
B9	0.05 fold	0.07 fold
B10	0.21 fold	1.22 fold
B11	0.08 fold	2.15 fold
B12	0.16 fold	1.41 fold
B13	0.74 fold	1.34 fold
B14	0.15 fold	0.48 fold
B15	1.31 fold	1.5 fold
B16	0.09 fold	2.59 fold
B17	0.23 fold	1.45 fold
B18	0.78 fold	1.37 fold
B19	0.34 fold	0.5 fold
B20	0.29 fold	1.53 fold
B21	0.29 fold	1.07 fold
B22	1.35 fold	0.88 fold

biological target: T1, CD137; assay: cell-based or functional assay; remark: another data set of the same source

Binder	Fold improvement in EC50 over BCY9173 on same plate	Fold improvement in Emax over BCY9173 on same plate
B23	1 fold	0.8 fold
B24	1 fold	0.9 fold
B25	1.4 fold	0.8 fold
B26	1.1 fold	0.8 fold
B27	1 fold	0.8 fold

biological target: T1, CD137; assay: cell-based or functional assay; remark: another data set of the same source

Binder	EC50	Fold Induction over background
B28	18 nM	8 fold over background
